These results are taken from patent publication US20140179604A1 (U S A REPRESENTED BY THE DEPARTMENT OF VETERANS AFFAIRS, published 2014).

Non-standard residues stand in square brackets, D forms with d. No end group written: not given here. *: point of attachment. Phe(F5) = N[C@@H](Cc1c(F)c(F)c(F)c(F)c1F)C(=O)O; Desaminotyrosyl = O=C(CCc1ccc(O)cc1)*; NMeY = CN[C@@H](Cc1ccc(O)cc1)C(=O)O; Agmatine = N=C(N)NCCCCN*; NMeA = CN[C@@H](C)C(=O)O; Nle = CCCC[C@H](N)C(=O)O; Orn = NCCC[C@H](N)C(=O)O; Abu = CC[C@H](N)C(=O)O; GABA = NCCCC(=O)O

What is called IC50 is the concentration that gives 50% inhibition.

The target in the assay is T1, GHRH receptor (membrane receptors of human anterior pituitary cells) (human, UniProt Q02643 23-423).
T1 construct: whole, on cells; Native receptor in a membrane fraction of purchased normal human pituitaries, not intact cells; also called hGHRH receptor; human pituitary membrane homogenates
T1 sequence (looked up): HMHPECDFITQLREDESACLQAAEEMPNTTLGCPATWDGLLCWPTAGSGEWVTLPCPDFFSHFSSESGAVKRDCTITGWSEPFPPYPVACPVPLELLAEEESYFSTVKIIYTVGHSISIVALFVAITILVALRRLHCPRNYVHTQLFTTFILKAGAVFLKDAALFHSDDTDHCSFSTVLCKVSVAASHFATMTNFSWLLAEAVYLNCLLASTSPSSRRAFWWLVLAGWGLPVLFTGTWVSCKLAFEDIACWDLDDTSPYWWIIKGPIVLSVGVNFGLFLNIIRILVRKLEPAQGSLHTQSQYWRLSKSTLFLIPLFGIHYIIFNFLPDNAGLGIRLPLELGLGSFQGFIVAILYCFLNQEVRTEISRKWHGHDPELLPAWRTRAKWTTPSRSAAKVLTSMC
The experiment in a line: competition with 125I-JV-1-42, human pituitary membranes. An excerpt: Normal human pituitaries were purchased from the National Hormone and Peptide Program (A. F. Parlow, Los Angeles, County Harbor-UCLA Medical Center, Torrance, Calif.).

B1: P-25501 [N-Me-Tyr^1, D-Ala^2, Orn^12, Abu^15, Orn^21, Nle^27, Gab^30]hGHRH(1-30)NH2 (peptide)
peptide: [NMeY][dA]DAIFTNSYR[Orn]VL[Abu]QLSAR[Orn]LLQDI[Nle]SR[GABA]-NH2
modifications: N-terminus assumed
SMILES: CCCC[C@H](NC(=O)[C@@H](NC(=O)[C@H](CC(=O)O)NC(=O)[C@H](CCC(N)=O)NC(=O)[C@H](CC(C)C)NC(=O)[C@H](CC(C)C)NC(=O)[C@H](CCCN)NC(=O)[C@H](CCCNC(=N)N)NC(=O)[C@H](C)NC(=O)[C@H](CO)NC(=O)[C@H](CC(C)C)NC(=O)[C@H](CCC(N)=O)NC(=O)[C@H](CC)NC(=O)[C@H](CC(C)C)NC(=O)[C@@H](NC(=O)[C@H](CCCN)NC(=O)[C@H](CCCNC(=N)N)NC(=O)[C@H](Cc1ccc(O)cc1)NC(=O)[C@H](CO)NC(=O)[C@H](CC(N)=O)NC(=O)[C@@H](NC(=O)[C@H](Cc1ccccc1)NC(=O)[C@@H](NC(=O)[C@H](C)NC(=O)[C@H](CC(=O)O)NC(=O)[C@@H](C)NC(=O)[C@H](Cc1ccc(O)cc1)NC)[C@@H](C)CC)[C@@H](C)O)C(C)C)[C@@H](C)CC)C(=O)N[C@@H](CO)C(=O)N[C@@H](CCCNC(=N)N)C(=O)NCCCC(N)=O
notes: also called Peptide 25501
As for B1, the IC50 turned out to be 1.07 nM and the “Relative affinity (Binding potency) vs JI-38” value (“Relative affinity” for short) came to 4.07 JI-38 = 1.

With [NMeY][dA]DAI[Phe(F5)]TNSYR[Orn]VL[Abu]QLSAR[Orn]LLQDI[Nle]SR[GABA]-NHMe (also called Peptide 27414) [P-27414 [N-Me-Tyr^1, D-Ala^2, Fpa5^6, Orn^12, Abu^15, Orn^21, Nle^27, Gab^30]hGHRH(1-30)NH-CH3], the IC50 is 1.56 nM and the “Relative affinity” value was found to be 2.79 JI-38 = 1.

B2: P-20357 [Dat^1, D-Ala^2, N-Me-Ala^8, Orn^12, Abu^15, Orn^21, Nle^27, Asp^28, Agm^29]hGHRH(1-29)NH2 (peptide)
peptide: [Desaminotyrosyl][dA]DAIFT[NMeA]SYR[Orn]VL[Abu]QLSAR[Orn]LLQDI[Nle]D[Agmatine]
SMILES: CCCC[C@H](NC(=O)[C@@H](NC(=O)[C@H](CC(=O)O)NC(=O)[C@H](CCC(N)=O)NC(=O)[C@H](CC(C)C)NC(=O)[C@H](CC(C)C)NC(=O)[C@H](CCCN)NC(=O)[C@H](CCCNC(=N)N)NC(=O)[C@H](C)NC(=O)[C@H](CO)NC(=O)[C@H](CC(C)C)NC(=O)[C@H](CCC(N)=O)NC(=O)[C@H](CC)NC(=O)[C@H](CC(C)C)NC(=O)[C@@H](NC(=O)[C@H](CCCN)NC(=O)[C@H](CCCNC(=N)N)NC(=O)[C@H](Cc1ccc(O)cc1)NC(=O)[C@H](CO)NC(=O)[C@H](C)N(C)C(=O)[C@@H](NC(=O)[C@H](Cc1ccccc1)NC(=O)[C@@H](NC(=O)[C@H](C)NC(=O)[C@H](CC(=O)O)NC(=O)[C@@H](C)NC(=O)CCc1ccc(O)cc1)[C@@H](C)CC)[C@@H](C)O)C(C)C)[C@@H](C)CC)C(=O)N[C@@H](CC(=O)O)C(=O)NCCCCNC(=N)N
notes: also called Peptide 20357
As for B2, the concentration for half-maximal inhibition (IC50) came out at 0.86 nM and the “Relative affinity” value is 5.06 JI-38 = 1.

Turning to [NMeY][dA]DAI[Phe(F5)]TNSYR[Orn]VL[Abu]QLSAR[Orn]LLQDI[Nle]D[Agmatine] (also called Peptide 20359) [P-20359 [N-Me-Tyr^1, D-Ala^2, Fpa5^6, Orn^12, Abu^15, Orn^21, Nle^27, Asp^28, Agm^29]hGHRH(1-29)NH2], the IC50 came to 3.05 nM and the “Relative affinity” value amounted to 1.43 JI-38 = 1.

B3: P-27400 [Dat^1, D-Ala^2, Orn^12, Abu^15, Orn^21, Nle^27, Asp^28]hGHRH(1-29)NH-CH3 (peptide)
peptide: [Desaminotyrosyl][dA]DAIFTNSYR[Orn]VL[Abu]QLSAR[Orn]LLQDI[Nle]DR-NHMe
SMILES: CCCC[C@H](NC(=O)[C@@H](NC(=O)[C@H](CC(=O)O)NC(=O)[C@H](CCC(N)=O)NC(=O)[C@H](CC(C)C)NC(=O)[C@H](CC(C)C)NC(=O)[C@H](CCCN)NC(=O)[C@H](CCCNC(=N)N)NC(=O)[C@H](C)NC(=O)[C@H](CO)NC(=O)[C@H](CC(C)C)NC(=O)[C@H](CCC(N)=O)NC(=O)[C@H](CC)NC(=O)[C@H](CC(C)C)NC(=O)[C@@H](NC(=O)[C@H](CCCN)NC(=O)[C@H](CCCNC(=N)N)NC(=O)[C@H](Cc1ccc(O)cc1)NC(=O)[C@H](CO)NC(=O)[C@H](CC(N)=O)NC(=O)[C@@H](NC(=O)[C@H](Cc1ccccc1)NC(=O)[C@@H](NC(=O)[C@H](C)NC(=O)[C@H](CC(=O)O)NC(=O)[C@@H](C)NC(=O)CCc1ccc(O)cc1)[C@@H](C)CC)[C@@H](C)O)C(C)C)[C@@H](C)CC)C(=O)N[C@@H](CC(=O)O)C(=O)N[C@@H](CCCNC(=N)N)C(=O)NC
For B3, the half-inhibitory concentration (IC50) was determined as 3.35 nM and the “Relative affinity” value turned out to be 1.3 JI-38 = 1.
